Reference: patent publication US20170189529A1 (CONTRAFECT, published 2017)
Read-outs that look alike come from different tables or passages of the source.

Experiments:
[1] = target: hemagglutinin of influenza A virus A/Perth/16/2009 (H3), on virus (influenza A virus H3 A/Perth/16/2009); assay: cell-based or functional assay
[2] = target: hemagglutinin of influenza A virus A/Philippines/2/82 x-79, on virus (influenza A virus A/Philippines/2/82 …); assay: cell-based or functional assay
[3] = target: hemagglutinin of influenza A virus A/Udorn/307/1976, on virus (influenza A virus A/Udorn/307/1976); assay: cell-based or functional assay
[4] = target: hemagglutinin of influenza A virus A/New York/55/2004, on virus (influenza A virus A/New York/55/2004); assay: cell-based or functional assay
[5] = target: hemagglutinin of influenza A virus A/Wisconsin/67/2005, on virus (influenza A virus A/Wisconsin/67/2005); assay: cell-based or functional assay
[6] = target: hemagglutinin of influenza A virus A/HongKong/68, on virus (influenza A virus A/HongKong/68); assay: cell-based or functional assay
[7] = target: hemagglutinin of influenza A virus A/SW/MN/02719, on virus (influenza A virus A/SW/MN/02719); assay: cell-based or functional assay
[8] = target: hemagglutinin of influenza A virus A/Bufflehead (H4), on virus (influenza A virus H4 A/Bufflehead); assay: cell-based or functional assay
[9] = target: hemagglutinin of influenza A virus A/Canada/rv444/04 (H7), on virus (influenza A virus H7 A/Canada/rv444/04); assay: cell-based or functional assay
[10] = target: hemagglutinin of influenza A virus A/Netherlands/219/03, on virus (influenza A virus A/Netherlands/219/03); assay: cell-based or functional assay
[11] = target: hemagglutinin of influenza A virus A/Northern Shoveler (H10), on virus (influenza A virus H10 A/Northern …); assay: cell-based or functional assay
[12] = target: T1, H3 Hong Kong/8/68 HA trimer (influenza A virus H3 Hong Kong/8/68); assay: kinetic binding to HA trimer (instrument not stated)
T1 construct: Trimeric HA

[13] = target: T2, hemagglutinin (HA) of influenza B virus B/Florida (Yamagata lineage) (influenza B virus B/Florida/06 …); assay: recombinant HA ELISA (AttoPhos fluorescence, mean of triplicates)
[14] = target: T3, hemagglutinin (HA) of influenza B virus B/Malaysia (Victoria lineage) (influenza B virus B/Malaysia/04 …); assay: as above
[15] = target: recombinant HA of influenza B virus B/Mass/12 (Yamagata clade) (influenza B virus B/Mass/12 (Yamagata …)); assay: as above
[16] = target: recombinant HA of influenza B virus B/Wisconsin/10 (Yamagata clade) (influenza B virus B/Wisconsin/10 …); assay: as above
[17] = target: recombinant HA of influenza B virus B/Brisbane/08 (Victoria clade) (influenza B virus B/Brisbane/08 …); assay: as above
[18] = target: T2, hemagglutinin (HA) of influenza B virus …
[19] = target: T3, hemagglutinin (HA) of influenza B virus …
[20] = target: T3, hemagglutinin (HA) of influenza B virus …; assay: affinity determination (method not stated there; data not shown)

B1: TRL579 (antibody, V domains shown)
VH: QVQLVQSGAEVKKPGASVKVSCKTSGYTFTAYTIHWVRQAPGQRLEWMGWINAGNGHTKYSQRFKGRVTITRDTSARTTYMELRSLTSEDTALYFCARGPETYYYDKTNWLNSHPDEYFQHWGHGTQVTVSS
VL: DIQMTQSPSTLSASVGDRVTITCRASQTINNYLAWYQQKPGKAPKLLIYKASSLESGVPSRFSGSGSGTEFTLTISSLQPDDFATYYCQEYNNDSPLTFGGGTKVEIKR
IC50 (ug/ml), MDCK monolayer microneutralization assay [1]: 0.2 µg/mL
IC50 (ug/ml), MDCK monolayer microneutralization assay [2]: 0.9 µg/mL
IC50 (ug/ml), MDCK monolayer microneutralization assay [3]: 1.9 µg/mL
IC50 (ug/ml), MDCK monolayer microneutralization assay [4]: 1.1 µg/mL
IC50 (ug/ml), MDCK monolayer microneutralization assay [5]: 1 µg/mL
IC50 (ug/ml), MDCK monolayer microneutralization assay [6]: 2.8 µg/mL
IC50 (ug/ml), MDCK monolayer microneutralization assay [7]: 3.9 µg/mL
IC50 (ug/ml), MDCK monolayer microneutralization assay [8]: 15.5 µg/mL
IC50 (ug/ml), MDCK monolayer microneutralization assay [9]: 1.6 µg/mL
IC50 (ug/ml), MDCK monolayer microneutralization assay [10]: 0.6 µg/mL
IC50 (ug/ml), MDCK monolayer microneutralization assay [11]: 0.8 µg/mL
Kd [12]: 0.2 nM
koff [12]: 5.8e-05 s⁻¹
kon [12]: 250000 M⁻¹ s⁻¹
fold reactivity over background [13]: 1 fold over background
fold reactivity over background [14]: 1.1 fold over background
fold reactivity over background [15]: 3.2 fold over background
fold reactivity over background [16]: 1 fold over background
fold reactivity over background [17]: 1 fold over background

B2: TRL846 (antibody, V domains shown)
VH: QVQLVESGGGLVQPGGSLRLSCTVSGFTFNSYAMNWVRQAPGKGLEWVSGIRGSGENTYYAETVKGRFTISRDNSKNTLYLEMNSLRAEDTAVYYCARKWGRMTVFGVATDQLYYFDYWGQGTLVTVSS
VL: DITLTQSPATLSVSPGERATLSCRASQSVSSNLAWYQQKPGQAPRLLIYGASNRATDIPARFSGSGSGTEFTLTISSLQSEDFAVYYCQQFNDWPFLTFGGGTKVEIKR
Kd [18]: 0.85 nM
Kd [19]: < 1 nM
fold reactivity over background [13]: 25.6 fold over background
fold reactivity over background [14]: 25.6 fold over background
fold reactivity over background [15]: 25.6 fold over background
fold reactivity over background [16]: 25.6 fold over background
fold reactivity over background [17]: 25.6 fold over background

B3: TRL854 (antibody, V domains shown)
VH: QVQLVESGAEVKKPGASVRVSCKGSGYTFTAYHMHWVRQAPGQGFEWVGWINPNSGATYYTSTFEGRVTMTRDTSITTAYMELSSLRSDDTAVYYCATDIVVERDASLGGFNSYGMDVWGQGTTVTVSS
VL: DIEMTQSPLSLPVTPGEPASISCRSSQSLLHSNGYNHLAWYLQKPGRSPHLLIYLASTRASGVPDRFSGSGSGTDFTLKISRVEAEDVGIYYCMQSLQTSITFGQGTRLEIKR
Kd [18]: 8.8 nM
Kd [20]: < 1 nM
fold reactivity over background [13]: 25.6 fold over background
fold reactivity over background [14]: 25.6 fold over background
fold reactivity over background [15]: 25.6 fold over background
fold reactivity over background [16]: 25.6 fold over background
fold reactivity over background [17]: 25.6 fold over background
